The results in this text go back to US20020147133A1.

Assay [1] has as its target SH2 domain of the tyrosine kinase Fyn (UniProt P06241). The assay is described as follows: isothermal titration calorimetry, 25 C.
Assay [2] concerns the target recombinant FKBP52 with a tag of six histidine residues at its N-terminus (UniProt Q02790). The assay is described as follows: isothermal titration calorimetry, 25 C. Background: Isothermal titration calorimetry measures the heat released or taken up as one component is titrated into another.
In another assay the target is recombinant FKBP12 (UniProt P62942). The assay is described as follows: isothermal titration calorimetry, 25 C.
Assay [3] deals with SH2 domain of the tyrosine kinase Fyn (UniProt P06241). The assay is described as follows: competition with pYEEI beads for radioactive Fyn SH2 domain (200 nM), no FKBP52.
Assay [4] has the same target. The assay is described as follows: competition with pYEEI beads for radioactive Fyn SH2 domain (200 nM), FKBP52 at 4.5 uM.
Assay [5] shares this target. The assay is described as follows: ratio of IC50 values, competition with pYEEI beads.
Assay [6] shares this target. The assay is described as follows: ratio of Kd values, isothermal titration calorimetry.
For assay [7] the target is unchanged. The assay can be described thus: isothermal titration calorimetry, Fyn SH2 domain binding to the FKpYEEI-FKBP52 complex.
Assay [8] addresses phosphotyrosine peptide NH2-pYEEI-COOH. The assay is described as follows: radioactive SH2 domain (200 nM) on pYEEI Affi-Gel beads, scintillation counting.
Assay [9] has the same target. The assay is described as follows: radioactive SH2 domain on an increased amount of pYEEI Affi-Gel beads.
The target of assay [10] is SH2 domain of the tyrosine kinase Fyn (UniProt P06241). The assay is described as follows: competition with pYEEI beads for radioactive Fyn SH2 domain (200 nM), no FKBP12.
For assay [11] the target is unchanged. The assay can be described thus: isothermal titration calorimetry, Fyn SH2 domain binding to the SLFpYEEI-FKBP12 complex.
Assay [12] has the same target. The assay can be described thus: competition with pYEEI beads for radioactive Fyn SH2 domain (200 nM), FKBP12 at 20 uM.
Assay [13] has the same target. The assay is described as follows: competition of free pYEEI with pYEEI beads for radioactive Fyn SH2 domain (200 nM).

SH2 domain of the tyrosine kinase Fyn, sequence (P06241 143-248): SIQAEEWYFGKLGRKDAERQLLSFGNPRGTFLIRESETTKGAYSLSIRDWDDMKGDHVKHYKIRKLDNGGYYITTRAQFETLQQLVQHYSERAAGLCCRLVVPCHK
recombinant FKBP12, sequence (P62942 whole entry, the tested form may be a part): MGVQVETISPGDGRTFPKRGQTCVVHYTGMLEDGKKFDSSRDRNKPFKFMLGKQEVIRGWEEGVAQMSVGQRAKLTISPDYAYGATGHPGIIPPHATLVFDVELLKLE
N-terminal SH2 domain of PLC, sequence (P19174 550-657): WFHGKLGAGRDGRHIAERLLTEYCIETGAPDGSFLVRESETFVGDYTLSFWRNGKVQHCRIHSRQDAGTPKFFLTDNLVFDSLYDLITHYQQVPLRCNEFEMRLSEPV
recombinant FKBP52 with a tag of six histidine residues at its N-terminus, sequence (Q02790 whole entry): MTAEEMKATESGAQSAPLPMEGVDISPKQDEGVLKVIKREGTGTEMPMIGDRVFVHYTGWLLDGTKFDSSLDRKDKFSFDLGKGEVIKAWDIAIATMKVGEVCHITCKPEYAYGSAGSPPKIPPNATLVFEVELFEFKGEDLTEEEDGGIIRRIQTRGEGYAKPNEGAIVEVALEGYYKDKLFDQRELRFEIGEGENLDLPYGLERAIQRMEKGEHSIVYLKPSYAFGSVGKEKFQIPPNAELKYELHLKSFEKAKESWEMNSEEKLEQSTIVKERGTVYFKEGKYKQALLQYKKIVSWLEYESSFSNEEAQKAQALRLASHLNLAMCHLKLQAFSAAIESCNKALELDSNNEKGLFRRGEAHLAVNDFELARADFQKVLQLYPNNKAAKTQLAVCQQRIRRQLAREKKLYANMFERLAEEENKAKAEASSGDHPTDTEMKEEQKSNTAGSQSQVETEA

Turning to “FKpYEEI (pYEEI peptide chemically linked to FK506)”, the results for the Kd (in [1]; in assay [2]; with recombinant FKBP12) were 520 nM, 150 nM and 45 nM, respectively. For the same substance, the IC50 (in general, the concentration needed to halve the response being measured) in assay [3] was 750 nM.
“FKpYEEI-FKBP52 complex (binary complex of FKBP52 and FKpYEEI) (from UniProt Q02790 1-459)”: the IC50 in assay [4] came to 250 nM. In addition, in assay [5], the fold enhancement of affinity against FKpYEEI alone is 3 fold and the fold enhancement of affinity against pYEEI is 4.4 fold. Also, the fold enhancement of Kd against FKpYEEI alone in [6] was 4 fold. Further, the Kd – broadly, the free concentration of one partner at which half of the binding sites on the other are occupied at equilibrium, for simple one-to-one binding – in assay [7] worked out at 130 nM.
N-terminal SH2 domain of PLC: the percent of SH2 domain bound to the beads turned out to be 25% in [8] and 40% in assay [9].
Take “SH2 domain of the tyrosine kinase Fyn (from UniProt P06241 143-248)”: the percent of SH2 domain bound to the beads in [8] came out at 65%; in [9] it was 80%.
“SH2 domain of the tyrosine kinase Lck (from UniProt P06239 120-226)”: the percent of SH2 domain bound to the beads in [8] stood at 15%; in [9], 25%.
As for “SLFpYEEI (SLF coupled to the N-terminus of the pYEEI peptide)”, the dissociation constant (Kd) is 183 nM in assay [1], 5000 nM in [2] and 61 nM with recombinant FKBP12. In addition, the IC50 in assay [10] is 250 nM.
On to “SLFpYEEI-FKBP12 complex (binary complex of SLFpYEEI and FKBP12) (from UniProt P62942 1-108)”, for which the fold reduction of affinity against SLFpYEEI alone in assay [5] turned out to be 6 fold. For the same substance, the Kd in assay [11] was 1500 nM. In addition, the 50% inhibitory concentration (IC50) in assay [12] stood at 1500 nM.
For phosphotyrosine peptide NH2-pYEEI-COOH, in assay [13], the IC50 is 1100 nM.
